Laboratory results taken from IntAct's records for PubMed 22153076.

B1: SH3 domain-binding protein 2 (Mus musculus), Q06649 (parent)
chain: MAAEEMQWPVPMKAIGAQNLLTMPGGVAKAGYLHKKGGTQLQLLKWPLRFVIIHKRCIYYFKSSTSASPQGAFSLSGYNRVMRAAEETTSNNVFPFKIIHISKKHRTWFFSASSEDERKSWMAFVRREIGHFHEKKELPLDTSDSSSDTDSFYGAVERPIDISLSSYPMDNEDYEHEDEDDSYLEPDSPGPMKLEDALTYPPAYPPPPVPVPRKPAFSDLPRAHSFTSKSPSPLLPPPPPKRGLPDTGSAPEDAKDALGLRRVEPGLRVPATPRRMSDPPMSNVPTVPNLRKHPCFRDSVNPGLEPWTPGHGTSSVSSSTTMAVATSRNCDKLKSFHLSSRGPPTSEPPPVPANKPKFLKIAEEPSPREAAKFAPVPPVAPRPPVQKMPMPEATVRPAVLPRPENTPLPHLQRSPPDGQSFRGFSFEKARQPSQADTGEEDSDEDYEKVPLPNSVFVNTTESCEVERLFKATDPRGEPQDGLYCIRNSSTKSGKVLVVWDESSNKVRNYRIFEKDSKFYLEGEVLFASVGSMVEHYHTHVLPSHQSLLLRHPYGYAGPR

Variants of: B1
Conditions: with rn146_human RNF146, Q9NTX7
Sequence of rn146_human RNF146, Q9NTX7 (Q9NTX7 whole entry): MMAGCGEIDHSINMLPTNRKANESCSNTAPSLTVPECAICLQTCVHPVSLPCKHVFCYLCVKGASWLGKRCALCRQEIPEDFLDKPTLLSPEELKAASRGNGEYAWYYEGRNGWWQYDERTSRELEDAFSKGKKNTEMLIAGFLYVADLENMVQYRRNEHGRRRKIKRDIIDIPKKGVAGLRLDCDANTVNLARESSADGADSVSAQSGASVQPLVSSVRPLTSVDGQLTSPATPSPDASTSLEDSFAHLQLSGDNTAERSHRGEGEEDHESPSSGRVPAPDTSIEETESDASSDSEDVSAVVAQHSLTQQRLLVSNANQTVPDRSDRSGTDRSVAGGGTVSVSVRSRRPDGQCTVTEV

effect of a mutation on the interaction	Variant
decreasing interaction	R413Q

Variants of: B1
Conditions: with tnks1_human TNKS

effect of a mutation on the interaction	Variant
disrupting interaction	R413Q
